Assay [1] deals with T1, human APC-PPACK (active site-blocked APC) (human, UniProt P04070 43-461, active site bound by the tripeptide inhibitor Phe-Pro-Arg-chloromethylketone (PPACK)).
T1 construct: Bought (Haematologic Technologies)
The assay can be described thus: ELISA.

Assay [2] addresses T2, human protein C (PC) zymogen (human, UniProt P04070 43-197; P04070 200-461).
T2 construct: Bought
The assay can be described thus: ELISA screen, PC-coated wells, OD450, n=2 [Continued].

Assay [3] deals with T2, human protein C (PC) zymogen. The description is as above. The source holds these as a separate data set.

Like-named read-outs stand apart in the source and are kept apart here.

T2 sequence (P04070 43-197, chain 1 of 2): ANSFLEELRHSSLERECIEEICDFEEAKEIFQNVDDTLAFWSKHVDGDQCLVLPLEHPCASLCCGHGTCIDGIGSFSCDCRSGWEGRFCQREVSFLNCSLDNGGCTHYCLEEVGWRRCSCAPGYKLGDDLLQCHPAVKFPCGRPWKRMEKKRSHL
T2 sequence (P04070 200-461, chain 2 of 2): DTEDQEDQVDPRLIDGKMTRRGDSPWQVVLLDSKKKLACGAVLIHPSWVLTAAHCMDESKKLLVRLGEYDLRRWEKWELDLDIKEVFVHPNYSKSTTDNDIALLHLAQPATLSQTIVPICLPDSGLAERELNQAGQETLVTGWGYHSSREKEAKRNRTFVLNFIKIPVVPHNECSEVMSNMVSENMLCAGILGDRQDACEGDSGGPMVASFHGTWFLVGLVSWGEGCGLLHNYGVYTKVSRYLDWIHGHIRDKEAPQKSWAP
T1 sequence (P04070 other isoform, or with tags, fused parts or gaps): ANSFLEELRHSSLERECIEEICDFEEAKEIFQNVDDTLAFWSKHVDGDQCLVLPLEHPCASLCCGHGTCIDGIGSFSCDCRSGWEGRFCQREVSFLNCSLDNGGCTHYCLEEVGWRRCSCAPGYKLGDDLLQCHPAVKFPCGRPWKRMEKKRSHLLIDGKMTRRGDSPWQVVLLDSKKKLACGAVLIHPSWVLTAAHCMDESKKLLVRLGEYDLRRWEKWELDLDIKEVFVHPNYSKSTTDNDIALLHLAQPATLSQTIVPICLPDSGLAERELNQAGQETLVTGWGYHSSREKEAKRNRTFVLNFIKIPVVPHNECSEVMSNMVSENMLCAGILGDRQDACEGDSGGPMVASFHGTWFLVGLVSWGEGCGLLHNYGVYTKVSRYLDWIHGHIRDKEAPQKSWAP

B1: SR16983-R2-P2-E10 (VHH)
VHH: QLQLVESGGGLVQPGGSLRLSCVLSGSTFGRNVITWYRQPPGKQREFIAMITTSGSTRYADSVKGRFTMSRDTAKNTAFLQMSNLKLEDTAVYYCWTAIAGQGEYWGQGTQVTVSS
Regarding B1, the binding result in assay [1] is “binds”; in assay [2], “no binding”.

B2: SR16983-R4-P1-C07 (VHH)
VHH: EVQLVESGGGVVQAGGSLRLSCVLSGNTFGDNVITWYRQPPGKQREFIAMITKSGSTRYADSVKGRFTMSRDTAKNTAFLQMSSLKVEDTAVYYCWTAIAGQGEYWGQGTQVTVSS
Consider B2, for which the results for the binding result in assay [1] and in assay [2] were “binds” and “no binding”, respectively.

B3: SR16983-R3P2D09 (VHH)
VHH: QVQLVESGGGLVQAGGSLRLSCAASGRTVGSYAMGWFRQAPGKEREFLAAFSRSTGNTVYADSVKGRFTISRDDAKNTLYLQMNSLKPEDTAVYYCAARASINYNYANWPYWGQGTQVTVSS
On to B3, for which the binding result in assay [1] was “binds”; in assay [2], “no binding”.

B4: SR16983-R2-P3-E06 (VHH)
VHH: QLQLVESGGGLVQAGGSLRLSCVASGRTVGSYAVAWFRQAPGKERELLAASSRSTGNTVYADSVKGRFTIARDDAKNTLYLQMNSLKPEDTAVYYCAARASINYNYANWPYWGQGTQVTVSS
On to B4, for which the binding result in assay [3] is “no binding”.

B5: SR16983-R3-P3-G03 (VHH)
VHH: QVQLVESGGGLVQAGGSLRLSCAASGRTVGSYVMGWFRQAPGKERELLAAFSRSTGNTVYADSVKGRFTISRDDAKNTLYLQMNSLKPEDTAVYYCAARASINYNYANWPYWGQGTQVTVSS
B5: the binding result was “binds” in assay [1] and “no binding” in assay [2].

B6: SR16983-R3-P3-F04 (VHH)
VHH: QLQLVESGGGLVQAGGSLRLSCAASGRTVGSYAMGWFRQAPGKEREFLAASSRSTGNTVYADSVKGRFTISRDDAKNTLYLQMNSLKPEDTAVYYCAARASINYNYANWPYWGQGTQVTVSS
For the molecule B6, the binding result in assay [1] is “binds”; in assay [2] it was “no binding”.

B7: SR16983-R3-P5-G12 (VHH)
VHH: QLQLVESGGGLVQAGGSLRLSCVASGRTVGSYAVAWFRQAPGKERELLAASSRSTGNTVYADSVKGRFTIARDDAKNTLYLQMNSLKPEDTAVYYCAARASINYNYANWPYWGQGTQVTVSS
Take B7: the binding result in assay [3] was “no binding”.

B8: SR16983-R2-P4-E11 (VHH)
VHH: QLQLVESGGGLVQAGGSLRLSCAASGTTFSFVYMGWYRQAPGNQRDLVARISRDGSTNYLDSVKGRFTISGDNAKNTVYLQMNSLKPEDTARYYCFYNGHLNKWGRGTQVTVSS
As to B8, the results for the binding result in assay [3] and in assay [1] were “no binding” and “binds”, respectively.

B9: SR16983-R3P2D01 (VHH)
VHH: QLQLVESGGGLVQAGGSLRLSCAASGTTSSFVYMGWYRQAPGNQRDLVARISSDGSTNYADSVKGRFTISGDNAKNTVYLQMNSLKPEDTARYYCFYNGHVNKWGQGTQVTVSS
Regarding B9, the binding result was “no binding” in assay [3] and “binds” in assay [1].

B10: SR16983-R3-P4-E11 (VHH)
VHH: QLQLVEFGGGLVQAGGSLRLSCAASGSTFSFNYMGWYRQAPGNQRDLVARISSGGITNYADSVKGRFTISGDNAKNTVYLQMNSLKPEDTARYYCFYNGYLNKWGQGTQVTVSS
As to B10, the binding result in assay [3] is on record as “no binding”; in assay [1] it was “binds”.

B11: SR16983-R3P2A07 (VHH)
VHH: QVQLVESGGRLVQAGGSLRLSCAASGRTSSNYAMGWFRQAPGKERRFVAGISRDGADTSYADSVKGRFTILRDRSKNTADLQMNSLKPEDTAIYYCAAARGIYGEISRYTGDYESWGQGTQVTVSS
B11: the binding result was “binds” in assay [1] and “no binding” in assay [2].

B12: SR16983-R2-P4-G08 (VHH)
VHH: EVQLVESGGGLVQAGGSLRLSCAASGLTSSTYAMAWFRQAPGKEREFVSVIDWRGSTTYTNSVKGRFTISRDNGKNTVYLQMNSLQPEDTALYYCAARASPGYVGSLYPYWGRGTQVTVSS
On to B12, for which the binding result is “no binding” in assay [3] and “binds” in assay [1].

B13: SR16983-R4-P1-C10 (VHH)
VHH: QVQLVESGGGLVQAGGSLRLSCVAYGSTFSINVFAWYRQAPGEQRELGELVAFIGRSGTTKYGDSVKGRFTISRDNAKNTVYLQMDSLRPEDTAVYYCNLGDYWGQGTQVTVSS
For B13, the binding result in assay [3] is reported as “no binding”; in assay [1], “binds”.

B14: SR16983-R3P2A08 (VHH)
VHH: QLQLVESGGGLVQPGGSLRLSCAASGFTFSTKWMYWVRQGPGKGLERVAAIDASGGSTYYADSVKGRFTISRDNSENTVYLQMNSLESADTAVYYCARSEGGLFRGRGTQVTVSA
Take B14: the binding result in assay [3] is on record as “no binding”; in assay [1], “binds”.

B15: SR16983-R2P1C12 (VHH)
VHH: QVQLVESGGGLVQPGGSLRLSCAASGFTFSMKWMYWVRQGPGKGLEWVSTIDTSGSSTYYADSVKGRFTISRDNSKNTVYLQMNSLESADTAVYYCARSAGGLFRGRGTQVTVSS
On to B15, for which the binding result in assay [3] was “no binding”; in assay [1] it was “binds”.

B16: SR16983-R2-P3-F01 (VHH)
VHH: EVQLVESGGGLVQPGGSLRLSCAASGFTFSTKWMYWVRQGPGKGLEWVSTIDASGGSTYYADSVKGRFTISRDNTEKKVYLQMNSLESADTAVYYCVRSAGGQFRGRGTQVTVSS
Take B16: the binding result in assay [3] is listed as “no binding”; in assay [1], “binds”.

B17: SR16983-R2-P3-F10 (VHH)
VHH: QVQLVESGGGLVQPGGSLRLSCKASGFTFSTKWMYWVRQGPGKGLERVAAIDASGGSTYYADSVKGRFTISRDNSDNTVYLQMNSLESADTAVYYCARSEGGQFRGQGTQVTVSS
With B17, the binding result in assay [3] is “no binding”; in assay [1], “binds”.

B18: SR16983-R3P2A5 (VHH)
VHH: QLQLVESGGGLVQPGGSLRLSCAASGFTFSTKWMYWVRQGPGKGLERVAAIDASGGSTYYADSVKGRFTISRDNSENTLYLQMNSLESADTAVYYCARSEGGLFRGRGTQVTVSA
With B18, the binding result in assay [3] is “no binding”; in assay [1] it was “binds”.

B19: SR16983-R3P2F4 (VHH)
VHH: QLQLVESGGGLVQAGGSLRLSCAASGRIFGTYVMGWFRQAPGKEREFVAAVSRSTGSTYADSVKGRFTISRDDAKNMLYLQMNNLRPEDTAIYYCATRASINYNYANWPYWGQGTQVTVSS
As to B19, the binding result in assay [1] is recorded as “binds”; in assay [2] it was “no binding”.

B20: SR16983-R2-P4-F09 (VHH)
VHH: QVQLVESGGGLVQAGGSLRLSCAASGFTFDDYAIGWFRQAPGKEREGIACRSTDGSTYYADSVEGRFTISSDNAKRTVYLQMNSLKPGDTAVYYCAADLMGVHRRCSGYLNLEYGMDYWAKGTLVTVSS
Take B20: the binding result is listed as “binds” in assay [1] and “no binding” in assay [2].

B21: SR16983-R3-P2-B05 (VHH)
VHH: QLQLVESGGGLVQAGGSLRLSCAASGTTSSLNLMGWYRQAPGKKRESVAHMTSDGRTDYVDSVKGRFTISRDNSKNTVYLQMNNLKPEDTAVYICYANPFLGSWSNYWGQGTQVTVSS
notes: The cell prints 55 (a CDR1 entry); to be checked
Turning to B21, in assay [3], the binding result is listed as “no binding”.

B22: SR16983-R2-P4-H08 (VHH)
VHH: QLQLVESGGGLMQAGGSLRLSCAASGTTSSLNLMGWYRQAPGKKRESVAHMTSDGRTDYTDSVKGRFTISRDNSKNTVYLQMNNLKPEDTAVYYCYANPFLGSWSNYWGQGTQVTVSS
On to B22, for which the binding result is “binds” in assay [1] and “no binding” in assay [2].

B23: SR16983-R4-P1-A12 (VHH)
VHH: QLQLVESGGGLVQAGGSLRLSCAASGTTSSLNLMGWYRQAPGKKRESVAHMTSDGDTDYVDSVKGRFTISRDNSKNTVYLQMNNVKPEDTAVYYCYANPFLGSWSNYWGQGTQVTVSS
As to B23, the binding result is on record as “binds” in assay [1] and “no binding” in assay [2].

B24: SR16983-R2-P2-A08 (VHH)
VHH: QVQLVESGGGVVQAGGSLRLSCAASGLTSSTYVMAWFRQAPGKEREFVSVIDSRGDTTYAKSVKGRFSISRDNGKNAVYLQMNSLQPEDTALYYCAARASASYVARMYAYWGRGTQVTVSS
Consider B24, for which the binding result in assay [1] is “binds”; in assay [2], “no binding”.

B25: SR16983-R2-P4-F01 (VHH)
VHH: QLQLVESGGGLVQAGGSLRLSCAASGRTFVGSYVMGWFRQAPGKAREFVAASSRSTGNTVYLDAVKGRFTVSRDDAKNTLYLQMSSLKPEDTAVYYCATRASINYNYANWPYWGQGTQVTVSS
For the molecule B25, the binding result is “no binding” in assay [3] and “binds” in assay [1].

B26: SR16983-R3-P3-G04 (VHH)
VHH: QLQLVESGGGLVQAGGSLRLSCTASGSTVRVTAGGWYRQAPGNERELVADIDNGGRPTYADSVKGRFTISRDNAKNAVDLQMNNLKPEDTAVYYCFVIAIPDSAPRPRAYWGQGTQVTVSS
On to B26, for which the results for the binding result in assay [3] and in assay [1] were “no binding” and “binds”, respectively.

B27: SR16983-R3-P4-G09 (VHH)
VHH: QLQLVESGGGLVQAGGSLRLSCAASGSTVRVTAGGWYRQTPGNERELVADIDNGGSTTYADSVKGRFTISRDNAKNAVDLQMNSLKPEDTAVYRCFVIAIPDSAPRPRSYWGQGTEVTVSS
On to B27, for which the binding result is “no binding” in assay [3] and “binds” in assay [1].

The record behind these values is patent publication US20250163183A1 (COAGULANT THERAPEUTICS, published 2025).
